Results published in patent US20170184591A1.

Legend:
[1] = target: EcSkp, biotin conjugate (naked chaperone without fused target) (Escherichia coli) (UniProt P0AEU7); experiment: asymmetric DAGS ECL, Skp-Bi and FkpA-Ru 250 ng/ml each; sample: pool of anti-HTLV-negative human sera; background signal, duplicate 2
[2] = target: EcSkp, biotin conjugate (naked chaperone without fused target) (Escherichia coli) (UniProt P0AEU7); experiment: asymmetric DAGS ECL, Skp-Bi and FkpA-Ru 250 ng/ml each; sample: pool of anti-HTLV-negative human sera; background signal, duplicate 1
[3] = target: EcSkp, biotin conjugate (naked chaperone without fused target) (Escherichia coli) (UniProt P0AEU7); experiment: asymmetric DAGS ECL, Skp-Bi and FkpA-Ru 10 ng/ml each; sample: pool of anti-HTLV-negative human sera; background signal, duplicate 2
[4] = target: EcSkp, biotin conjugate (naked chaperone without fused target) (Escherichia coli) (UniProt P0AEU7); experiment: asymmetric DAGS ECL, Skp-Bi and FkpA-Ru 10 ng/ml each; sample: pool of anti-HTLV-negative human sera; background signal, duplicate 1
[5] = target: EcFkpA, biotin conjugate (naked chaperone without fused target) (Escherichia coli) (UniProt P45523); experiment: asymmetric DAGS ECL, FkpA-Bi and Skp-Ru 250 ng/ml each; sample: pool of anti-HTLV-negative human sera; background signal, duplicate 1
Chain of UniProt P45523 (P45523 26-270 limits assumed): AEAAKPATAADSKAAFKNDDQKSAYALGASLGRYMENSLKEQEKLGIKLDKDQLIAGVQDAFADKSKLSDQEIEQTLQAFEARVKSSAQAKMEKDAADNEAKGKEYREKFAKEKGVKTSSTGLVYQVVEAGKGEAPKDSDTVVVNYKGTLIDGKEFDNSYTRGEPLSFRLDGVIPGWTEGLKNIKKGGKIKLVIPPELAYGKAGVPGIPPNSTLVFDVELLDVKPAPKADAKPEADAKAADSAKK

[6] = target: EcFkpA, biotin conjugate (naked chaperone without fused target) (Escherichia coli) (UniProt P45523); experiment: asymmetric DAGS ECL, FkpA-Bi and Skp-Ru 250 ng/ml each; sample: pool of anti-HTLV-negative human sera; background signal, duplicate 2
[7] = target: EcFkpA, biotin conjugate (naked chaperone without fused target) (Escherichia coli) (UniProt P45523); experiment: asymmetric DAGS ECL, FkpA-Bi and Skp-Ru 10 ng/ml each; sample: pool of anti-HTLV-negative human sera; background signal, duplicate 1
[8] = target: EcFkpA, biotin conjugate (naked chaperone without fused target) (Escherichia coli) (UniProt P45523); experiment: asymmetric DAGS ECL, FkpA-Bi and Skp-Ru 10 ng/ml each; sample: pool of anti-HTLV-negative human sera; background signal, duplicate 2

Chain of UniProt P0AEU7 (P0AEU7 21-161 limits assumed): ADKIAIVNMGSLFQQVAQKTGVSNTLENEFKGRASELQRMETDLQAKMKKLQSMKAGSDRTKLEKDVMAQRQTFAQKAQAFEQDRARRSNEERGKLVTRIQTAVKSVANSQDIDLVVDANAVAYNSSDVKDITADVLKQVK

Substance | Signal (counts) [1] [counts] | Signal (counts) [2] [counts] | Signal (counts) [3] [counts] | Signal (counts) [4] [counts] | Signal (counts) [5] [counts] | Signal (counts) [6] [counts] | Signal (counts) [7] [counts] | Signal (counts) [8] [counts]
EcFkpA, ruthenium conjugate (naked chaperone without fused target) (from UniProt P45523 26-270) | 2760 | 2670 | 561 | 567 | – | – | – | –
EcSkp, ruthenium conjugate (naked chaperone without fused target) (from UniProt P0AEU7 21-161) | – | – | – | – | 854 | 864 | 447 | 439
